Results taken from paper PMC7218409, “The protein architecture of the endocytic coat analyzed by FRET microscopy” (Molecular Systems Biology, 2020).
Each block holds one binder with its values, some of them ahead of it.

Key:
Ede1-mCherry = target: T1, Ede1-mCherry (S. cerevisiae, UniProt P34216 1-1381); test: FRET or BRET; acceptor photobleaching in live yeast; inner cytoplasmic (nucleus and vacuole free) areas; GFP/mCherry or mTurquoise2/mNeonGreen pairs; conditions: partners not purified
T1 construct: Ede1 (Eps15/R homolog), S. cerevisiae; gene tagged at its endogenous locus, no truncation told; Linker RTLQVD between protein and C-terminal tag; source: S. cerevisiae, expressed from its endogenous locus, in live cells; not shown: mCherry, C-terminal, kept
T1 sequence (looked up): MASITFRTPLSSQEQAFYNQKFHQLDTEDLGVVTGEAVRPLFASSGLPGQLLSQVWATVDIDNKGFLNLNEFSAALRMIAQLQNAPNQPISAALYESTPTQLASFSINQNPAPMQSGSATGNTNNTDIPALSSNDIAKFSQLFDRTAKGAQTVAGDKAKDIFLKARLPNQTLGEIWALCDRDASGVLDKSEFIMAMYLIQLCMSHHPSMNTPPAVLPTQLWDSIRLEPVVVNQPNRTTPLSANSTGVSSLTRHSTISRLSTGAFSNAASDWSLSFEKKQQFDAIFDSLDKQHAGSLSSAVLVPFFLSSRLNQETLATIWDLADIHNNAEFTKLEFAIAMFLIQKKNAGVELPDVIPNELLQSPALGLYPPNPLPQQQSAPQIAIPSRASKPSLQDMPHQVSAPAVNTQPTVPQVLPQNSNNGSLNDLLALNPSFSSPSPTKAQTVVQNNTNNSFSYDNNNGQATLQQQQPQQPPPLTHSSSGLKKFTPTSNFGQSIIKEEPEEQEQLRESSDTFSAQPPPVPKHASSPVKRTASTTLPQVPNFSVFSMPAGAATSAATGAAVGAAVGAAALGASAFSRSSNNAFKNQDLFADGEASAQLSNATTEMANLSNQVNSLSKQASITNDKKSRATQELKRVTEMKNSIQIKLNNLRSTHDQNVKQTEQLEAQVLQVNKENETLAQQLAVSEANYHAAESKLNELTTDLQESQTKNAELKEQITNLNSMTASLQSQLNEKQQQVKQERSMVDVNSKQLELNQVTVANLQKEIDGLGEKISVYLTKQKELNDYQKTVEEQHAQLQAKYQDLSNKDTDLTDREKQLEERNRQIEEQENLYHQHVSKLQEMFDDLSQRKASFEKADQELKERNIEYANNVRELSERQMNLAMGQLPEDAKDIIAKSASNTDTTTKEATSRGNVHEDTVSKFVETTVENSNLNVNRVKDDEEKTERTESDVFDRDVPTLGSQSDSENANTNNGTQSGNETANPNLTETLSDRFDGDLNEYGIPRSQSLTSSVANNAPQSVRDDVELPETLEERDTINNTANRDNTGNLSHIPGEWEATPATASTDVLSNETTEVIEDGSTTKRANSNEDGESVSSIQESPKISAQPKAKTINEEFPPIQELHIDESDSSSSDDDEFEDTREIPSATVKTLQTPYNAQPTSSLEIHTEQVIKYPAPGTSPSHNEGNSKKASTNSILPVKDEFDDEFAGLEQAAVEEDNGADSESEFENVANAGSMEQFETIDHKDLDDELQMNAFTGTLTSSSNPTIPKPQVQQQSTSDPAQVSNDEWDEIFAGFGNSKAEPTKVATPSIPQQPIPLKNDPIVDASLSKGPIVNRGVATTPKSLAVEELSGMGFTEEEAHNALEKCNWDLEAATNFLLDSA

[1] = target: T2, Pan1, full length, with a C-terminal fluorescent tag (S. cerevisiae, UniProt P32521 1-1480); test: as above; conditions: partners not purified
T2 construct: Pan1, S. cerevisiae; gene tagged at its endogenous locus; Linker RTLQVD between protein and C-terminal tag; also called Pan1-mCherry; C-terminus of Pan1; source: S. cerevisiae, expressed from its endogenous locus, in live cells; not shown: GFP or mCherry, C-terminal, kept
T2 sequence (looked up): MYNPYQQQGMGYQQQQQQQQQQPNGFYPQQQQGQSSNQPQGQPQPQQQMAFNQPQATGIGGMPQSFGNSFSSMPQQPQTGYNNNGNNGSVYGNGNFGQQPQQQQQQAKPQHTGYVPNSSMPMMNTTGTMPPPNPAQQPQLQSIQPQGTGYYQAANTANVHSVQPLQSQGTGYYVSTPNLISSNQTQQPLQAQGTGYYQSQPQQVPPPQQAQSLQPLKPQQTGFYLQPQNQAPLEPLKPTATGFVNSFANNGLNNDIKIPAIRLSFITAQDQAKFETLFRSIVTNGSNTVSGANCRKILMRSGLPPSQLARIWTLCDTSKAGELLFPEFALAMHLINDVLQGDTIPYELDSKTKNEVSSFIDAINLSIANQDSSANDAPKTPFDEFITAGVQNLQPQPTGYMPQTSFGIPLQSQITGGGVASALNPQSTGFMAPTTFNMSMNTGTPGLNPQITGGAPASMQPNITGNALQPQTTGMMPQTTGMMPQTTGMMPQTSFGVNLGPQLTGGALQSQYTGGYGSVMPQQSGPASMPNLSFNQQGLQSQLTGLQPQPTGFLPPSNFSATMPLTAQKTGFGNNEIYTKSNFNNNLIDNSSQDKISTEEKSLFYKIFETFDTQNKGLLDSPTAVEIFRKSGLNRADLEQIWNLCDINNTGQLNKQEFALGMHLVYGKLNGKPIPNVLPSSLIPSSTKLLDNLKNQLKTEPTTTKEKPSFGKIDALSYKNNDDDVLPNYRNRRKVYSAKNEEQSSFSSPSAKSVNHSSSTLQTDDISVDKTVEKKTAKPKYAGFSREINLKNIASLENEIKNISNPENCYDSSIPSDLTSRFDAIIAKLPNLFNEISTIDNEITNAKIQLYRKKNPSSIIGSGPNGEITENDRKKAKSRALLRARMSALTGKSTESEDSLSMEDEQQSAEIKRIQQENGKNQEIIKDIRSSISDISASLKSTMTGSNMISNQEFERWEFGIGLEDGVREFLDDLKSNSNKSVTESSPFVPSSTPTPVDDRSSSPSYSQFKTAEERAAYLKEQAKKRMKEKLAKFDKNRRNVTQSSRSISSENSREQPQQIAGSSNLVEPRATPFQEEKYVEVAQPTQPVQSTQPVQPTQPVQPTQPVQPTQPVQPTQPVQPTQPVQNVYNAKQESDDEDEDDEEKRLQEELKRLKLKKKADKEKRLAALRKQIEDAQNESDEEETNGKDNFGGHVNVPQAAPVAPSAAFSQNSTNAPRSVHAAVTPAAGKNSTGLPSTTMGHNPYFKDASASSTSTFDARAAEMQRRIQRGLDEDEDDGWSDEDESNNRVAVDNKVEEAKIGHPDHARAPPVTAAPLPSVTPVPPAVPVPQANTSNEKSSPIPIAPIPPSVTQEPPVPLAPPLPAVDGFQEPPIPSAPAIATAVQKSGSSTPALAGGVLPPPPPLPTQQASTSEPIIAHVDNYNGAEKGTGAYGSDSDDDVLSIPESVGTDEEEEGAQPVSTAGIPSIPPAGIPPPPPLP

FRET efficiency (Ede1-mCherry): 2.5%
B1: Syp1-GFP (natural protein, S. cerevisiae, UniProt P25623 1-870, looked up)
chain: MTEQRTKYADSILTTKSPYEATETIRIRLSQVKLLNKDFYLLFKELANLKRNYAQQLRKIIAENEDITKILNAQMIESNVLTPQEMSAFRFNSLGELRNVWDTVIEELKSDLKSSTEYYNTLDQQVVRELKESVENNTSWRESKDLHSKLSKNAASIEHYSKNNENSSHLEEARRQWDQQSPYLFELFETIDYNRLDTLKNCMLRFQTSFSDYLLNTTKECETVMTKFLAFEPQSEIDRFAKDASQYNFQLSSSSKEVVPNNASPASATGARPVSVSNGAANTEREKKSPQKDKRKSAFGNIGHRLASASSSLTHNDLMNNEFSDSTNNSSLKSKKSSHTLRSKVGSIFGRNKTKNKRQQQSSSNSHIQASITETPNNSSTRVSSTATSSIYQKQRRPTYSSSKSNNWTPGEASDTPPLPPHATPKNVDAPVTADTPPAQTFTPSEVPPSTPQQSSPPTAKEPDSSNLPKTVPISISQPPLQPQSKTKPLPVEPASPSISLPTATVDNQPSGQVDSRPLHIRAPALPPSRKQNFIHNRDSQLYDSLPNHGSGATPTSSSLSSIPQERPVSTLSSQITGELRELNPQATGSSTSLVGQSLFQHSSLDTSQFGLNASIAEVLNASFKDGMLQNSQLIGEIALNYLPNSVMNSPLPIGINLRINNGAKFEKVILNQAFIERVAPEEFKVNPSFIDSRTLGAIKYSIKEPIAPIVIHPVWRFESHQASVVLTVKMSPSLPDEISQIVIEDLVVFVNIDGANATSALSKPQGSFSKEKKRITWRFKEPVVLTRNGEGQRLIARFITDGLAHESAKGVITKFTISETDNVALPHSGAGSGITLTCQELDENNPFGGEWLDVNTKRTLTTGNYHGLA
notes: Syp1 (FCHo1/2 homolog), S. cerevisiae; gene tagged at its endogenous locus, no truncation told; Linker RTLQVD between protein and C-terminal tag; source: S. cerevisiae, expressed from its endogenous locus, in live cells; not shown: GFP, C-terminal, kept

FRET efficiency [1]: 4.5%
B2: GFP-End3 (natural protein, S. cerevisiae, UniProt P39013 1-349, looked up)
chain: MPKLEQFEIKKYWQIFSGLKPIENKVNHDQVLPILYNSKLDSSVLNKIWFLADIDDDDNLDFEEFVICMRLIFDMVNKNISSVPDELPDWLIPGSKVNLIKERKKRKQIENADLPPKKEIKVDWYMSPDDLNQYEKIYNSCAKLTDGTITFNELSTKLSTKFFNISKTDLNKVWSLINPQNLPSIDRDPTFYFIHCLRQRNDLGAEIPASLPNSLAEVCNKKQLSYDLRSSQPPTKRKEEANEVDNLRDNGQNSSSDSSGSNVLSNEDSIKQKYASLTDDQVANMREQLEGLLNYKKSEKTQGGSKLSKRINIRSITDDLDNIEQQVEVLENYLNNKRHELQALQAEIN
notes: End3, S. cerevisiae; gene tagged at its endogenous locus, no truncation told; Linker GS(GGGGS)3ATENNS between N-terminal tag and protein; also called N-terminus of End3; source: S. cerevisiae, expressed from its endogenous locus, in live cells; not shown: GFP, N-terminal, kept
